Measurements from the domain aggregation screens of Martell et al. (2025).

Test: soluble fraction after stress (log2 fold change); higher = more stays soluble; pooled small domains, quantitative proteomics
Conditions: stress: 75 degC
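Further: 20 min heating vs room temperature control held 20 min.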

Sequence	soluble fraction (log2)
HMKMTFGENLHKLRKIYRLSQEDVASAINLKRSDIAAVEKGDRVLNDEELDKLADFIGIDIVDLL	-0.479
HMKMVSTPTGTRISLTQVKEFISNASFDDMKEILLEVLAWFKAHNLGNPFNYNRAFEFIVAH	-0.256
HMKNELNSKLIISIKEALPPQIKVATYLMDLLSLGREAVYRRIRGDVSFDLEELSIISKALNISIDDVL	-3.9
HMKNESLMLPRDIDYSRVHGLSNEAIQKLQDALPQSLGQASRIEGITPATLSLLLLYLKKNNKRI	-0.00281
HMKNHSTFKSVLSNIEFPINERISGHAIQNPILGLIKADHPNFSSDQYIAISELNFYREKYISNYLLTEI	-3.67
HMKNKIYGTIVSSTSGEETVYKVFQVDSSKDITYLFRPDMIRLAHENNQALEFNEETGRGKRIEMSDLPK	-0.106
HMKNLHLVPNVVGMSAKEAKNTLKSFNIKYKPIYGSSNKYDENYIFNQNPRKGKTIKEQEVVTIYISRGAD	-1.42
HMKNNNIIFSEFLKEVENGRVVEVRIQGNNIQGIMSNGKEFTTYSPNYPNLIEKLTETGVSISAAPL	0.434
HMKNPLIIGMTKDKIIELIGMPDNIKFLDSSLSKSEVWNYDKFGKKLYIKDEKLYQIENIEE	0.0985
HMKNSAAKETILAFLKKNGGELFTQMQIIEKFQKMIPAPVLRITLEELLNKGQVEITSKGKYYLSVKGS	-2.08
HMKNSKIVIQKRHNHILELLKQNRTMDVTVLAERLGVTGATIRRDLKKLEQEGTIVRSFGKVSFVG	-2.18
HMKNTVGEYRKLKSTTILYSNSDLTGTKYTYLPNTTVKILKNISSTVDYVYIKATNRYAYINIYAYT	-2.69
HMKNVENIILEQLKKNIYDDLNNASFEEIILIDAEKSIYKGTIKANYIEYNFKINLSTGEILKWKLK	-1.95
HMKNVSVKMILSPESLGEIQVDLVFSKGKDLEIMLRPETAEVAKLIQSNSASLREQLSLEHKGPLSLNVS	-0.32
HMKNYALHEPMMDRIAKVNALYDAGHTIKYMTARGAVSMVDYYDLTKSQLDSWGAKYHELSVGK	0.12
HMKNYYEVLGVPRDAAAPDIKRAFRKLAKQFHPDHNPGDAKAEERFKLVSQAYDVLGDEEKRKLYDQFGE	0.0891
HMKNYYSILGVTPDSSEAEIKSAYRRLARKFHPDVNPDGASRFKDISEAYETLSDAKKRFQYDTINGF	-0.0709
HMKPATSITFIPSERPDLVEQLSKITFDKKDSLYENYINLNWLTFEAISVYMREGDIIGFST	-0.148

Sequence	soluble fraction (log2)
HMKPDAAKREQLIDIALRLFSQQGIARTSLNAIAREAGVTPAMLHYYFNSREQLLDVMIEERFL	-3
HMKPDIETQLKKYRYKVSVSKKIKPYMVFSDKTLSELLTKSPTNLKELEDINGFGPVKVQEYGAAILEILK	-1.19
HMKPDSEFTSQDLWQNDLAGTGSAAYRRDKMGALLGIGYGNAKRFLERLNSYGVTRSEFDEALAQLGE	-0.188
HMKPEDIALLEEIRDLLKEKKSVIVNLEYVNKDVARRIVDFISGGVFALNGHIQKVSNSIFLVAPMN	-0.00621
HMKPMNNNDILRRLRYTFDLSDDKMMETFALGGYEANRSEISDWLKKDDHPEQKSLYDKSLSHFLNGFIV	-0.178
HMKPPVQVIGKAVVTASSLNVRTGPGTGHGIITSLPRNTEVELLEQQGEWYKIRRGSTVGYVHGGYLKIN	-0.311
HMKPRISMITLGVKDLNKSIEFYGGGLGFPRKKTEPEIAIFKLNGSWLSLYNRGLLAEDANVS	-0.184
HMKPSKYTLAIDSIPVHVTRKQMKSIRLRVTPLGEVRVSAPYGVKDSEIVEMVRSRKLWIESQQRA	-2.34
HMKPSTETLYATARINVRAAADTSAEKLGSIEMGEAVVRTGTDGDWSIIEYNGSTGYVKSEYLTANAGDAT	0.232
HMKPSVEIKVNGGTGAGVVKKGGSITVTANEPAEGKVFTGWQDESGKIVSTQKEYTFTVAEGTTLTAVYED	≥ 1.04
HMKPTGWVRGDMGVVDKGQLSITQGTVNVRSGPGLSYEILDQVRRGDRFPVIKSQSGWHNISM	0.249
HMKPTSLLGIERYLGSGLIRGVGPSTAKQIVEHFGMETMEVLTEHPERLQEVHGMGRKRWRQIAESFQEQQ	-0.869
HMKPVTVINFVGMTEEKAMTEAEKLGLVVGASSSEYSDEPAGTVIRQSISVSTEAKTGDNIYFTVSKGPE	0.677
HMKQETLNEIGTKIRKLRESKNLSIQEFADKLEMEYNNVIRIEKGRTNFTIGTLVKIANSLEVNLKDI	-2.41
HMKQFVVQYYGIDGEVINSVYKNGMSDLTSYEPEKIDGKNFKGWSLSEDSKKVIDENYRINSDVNLYAVYT	0.758
HMKQHPTIDLQIGQKLHYKEDVFEVTRFAKDKNGQDMVILKDPSIGSGIEIPWYRSKLEEIIESGQYKIT	0.361
HMKQIEEIIARYTNENTPLMMILSDVQREYGYIPLDVQELISEKTGIPVAEIYGVVTFYSFFSL	-0.676
